Measured values: patent US20180016327A1 (Chugai, published 2018)

B1: CFP0017 17L 96Y (antibody, V domains shown)
VH: QVQLVQSGAEVKKPGSSVKVSCKASGGTFSSYAISWVRQAPGQGLEWMGGIIPIFGTANYAQKFQGRVTITADESTSTAYMELSSLRSEDTAVYYCARGGWWGGALDYWGQGTLVTVSS
VL: DIQMTQSPSSLSASVGDRVTITCRASQSIEDDLAWYQQKPGKAPKLLIYHASSLQSGVPSRFSGSGSGTDFTLTISSLQPEDFATYYCQQSDSYPYTFGQGTKVEIK
B2: CFP0019 (antibody, V domains shown)
VH: QVQLQESGPGLVKPSETLSLTCAVSGYSISSGYYWGWIRQPPGKGLEWIGSIYHSGSTYYNPSLKSRVTISVDTSKNQFSLKLSSVTAADTAVYYCARYYVWLGGPTYMDYWGQGTLVTVSS
VL: DIQMTQSPSSLSASVGDRVTITCRASQSIEDDLAWYQQKPGKAPKLLIYHASTLQSGVPSRFSGSGSGTDFTLTISSLQPEDFATYYCQQSDGYPLTFGQGTKVEIK
notes: IgG format
B3: CFP0017 17L 94S (antibody, V domains shown)
VH: QVQLVQSGAEVKKPGSSVKVSCKASGGTFSSYAISWVRQAPGQGLEWMGGIIPIFGTANYAQKFQGRVTITADESTSTAYMELSSLRSEDTAVYYCARGGWWGGALDYWGQGTLVTVSS
VL: DIQMTQSPSSLSASVGDRVTITCRASQSIEDDLAWYQQKPGKAPKLLIYHASSLQSGVPSRFSGSGSGTDFTLTISSLQPEDFATYYCQQSDSSPLTFGQGTKVEIK
B4: CFP0017 17L 93D (antibody, V domains shown)
VH: QVQLVQSGAEVKKPGSSVKVSCKASGGTFSSYAISWVRQAPGQGLEWMGGIIPIFGTANYAQKFQGRVTITADESTSTAYMELSSLRSEDTAVYYCARGGWWGGALDYWGQGTLVTVSS
VL: DIQMTQSPSSLSASVGDRVTITCRASQSIEDDLAWYQQKPGKAPKLLIYHASSLQSGVPSRFSGSGSGTDFTLTISSLQPEDFATYYCQQSDDYPLTFGQGTKVEIK
B5: CFP0017 17L 94T (antibody, V domains shown)
VH: QVQLVQSGAEVKKPGSSVKVSCKASGGTFSSYAISWVRQAPGQGLEWMGGIIPIFGTANYAQKFQGRVTITADESTSTAYMELSSLRSEDTAVYYCARGGWWGGALDYWGQGTLVTVSS
VL: DIQMTQSPSSLSASVGDRVTITCRASQSIEDDLAWYQQKPGKAPKLLIYHASSLQSGVPSRFSGSGSGTDFTLTISSLQPEDFATYYCQQSDSTPLTFGQGTKVEIK
B6: CFP0017 17L 93N (antibody, V domains shown)
VH: QVQLVQSGAEVKKPGSSVKVSCKASGGTFSSYAISWVRQAPGQGLEWMGGIIPIFGTANYAQKFQGRVTITADESTSTAYMELSSLRSEDTAVYYCARGGWWGGALDYWGQGTLVTVSS
VL: DIQMTQSPSSLSASVGDRVTITCRASQSIEDDLAWYQQKPGKAPKLLIYHASSLQSGVPSRFSGSGSGTDFTLTISSLQPEDFATYYCQQSDNYPLTFGQGTKVEIK
B7: CFP0017 17L 31A (antibody, V domains shown)
VH: QVQLVQSGAEVKKPGSSVKVSCKASGGTFSSYAISWVRQAPGQGLEWMGGIIPIFGTANYAQKFQGRVTITADESTSTAYMELSSLRSEDTAVYYCARGGWWGGALDYWGQGTLVTVSS
VL: DIQMTQSPSSLSASVGDRVTITCRASQSIEADLAWYQQKPGKAPKLLIYHASSLQSGVPSRFSGSGSGTDFTLTISSLQPEDFATYYCQQSDSYPLTFGQGTKVEIK
B8: CFP0017 17L 93G (antibody, V domains shown)
VH: QVQLVQSGAEVKKPGSSVKVSCKASGGTFSSYAISWVRQAPGQGLEWMGGIIPIFGTANYAQKFQGRVTITADESTSTAYMELSSLRSEDTAVYYCARGGWWGGALDYWGQGTLVTVSS
VL: DIQMTQSPSSLSASVGDRVTITCRASQSIEDDLAWYQQKPGKAPKLLIYHASSLQSGVPSRFSGSGSGTDFTLTISSLQPEDFATYYCQQSDGYPLTFGQGTKVEIK
B9: CFP0017 17L 31H (antibody, V domains shown)
VH: QVQLVQSGAEVKKPGSSVKVSCKASGGTFSSYAISWVRQAPGQGLEWMGGIIPIFGTANYAQKFQGRVTITADESTSTAYMELSSLRSEDTAVYYCARGGWWGGALDYWGQGTLVTVSS
VL: DIQMTQSPSSLSASVGDRVTITCRASQSIEHDLAWYQQKPGKAPKLLIYHASSLQSGVPSRFSGSGSGTDFTLTISSLQPEDFATYYCQQSDSYPLTFGQGTKVEIK
B10: CFP0017 17L 93R (antibody, V domains shown)
VH: QVQLVQSGAEVKKPGSSVKVSCKASGGTFSSYAISWVRQAPGQGLEWMGGIIPIFGTANYAQKFQGRVTITADESTSTAYMELSSLRSEDTAVYYCARGGWWGGALDYWGQGTLVTVSS
VL: DIQMTQSPSSLSASVGDRVTITCRASQSIEDDLAWYQQKPGKAPKLLIYHASSLQSGVPSRFSGSGSGTDFTLTISSLQPEDFATYYCQQSDRYPLTFGQGTKVEIK
B11: CFP0017 17L 53T (antibody, V domains shown)
VH: QVQLVQSGAEVKKPGSSVKVSCKASGGTFSSYAISWVRQAPGQGLEWMGGIIPIFGTANYAQKFQGRVTITADESTSTAYMELSSLRSEDTAVYYCARGGWWGGALDYWGQGTLVTVSS
VL: DIQMTQSPSSLSASVGDRVTITCRASQSIEDDLAWYQQKPGKAPKLLIYHASTLQSGVPSRFSGSGSGTDFTLTISSLQPEDFATYYCQQSDSYPLTFGQGTKVEIK
B12: antibody comprising heavy chain of clone 18 and light chain of 20L065 (antibody, V domains shown)
VH: QVQLVQSGAEVKKPGSSVKVSCKASGGTFSSYAISWVRQAPGQGLEWMGGIIPIFGTANYAQKFQGRVTITADESTSTAYMELSSLRSEDTAVYYCARQLYGYYELDIWGQGTLVTVSS
VL: DIQMTQSPSSLSASVGDRVTITCRASQSIHDDLAWYQQKPGKAPKLLIYEASNLQSGVPSRFSGSGSGTDFTLTISSLQPEDFATYYCQQYSSYPHTFGQGTKVEIK
notes: also called clone 18 with common light chain

Target: T1, human C5 (human, UniProt P01031 19-673; P01031 678-1676, Beta and alpha chains are disulfide-linked and the protein is glycosylated.)
T1 construct: Either in-house recombinant C5 or plasma derived C5 (CALBIOCHEM) was used; also called recombinant human C5; plasma derived human C5
Experiment: Biacore, captured antibody, pH 7.4, 37 C;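 note: biacore binding response of anti-C5 antibody light chain variants captured on chip with human C5 injected, ACES running buffer containing 1.2 mM CaCl₂, parent light chain antibody set to 100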

Compared with B1, B2 is higher in “% binding (parent = 100)” value: -11.1% for the first, 100% for the second.

First: B3
Second: B4
The “% binding (parent = 100)” value of the first is lower: -8.4% for the first, 22.9% for the second.

Going from B5 to B6, the “% binding (parent = 100)” value rises from 4.3% to 63%.

Compared with B7, B8 is higher in “% binding (parent = 100)” value: 0.6% for the first, 51% for the second.

First: B9
Second: B10
The “% binding (parent = 100)” value of the first is lower: 3.4% for the first, 84.9% for the second.

For B11, the “% binding (parent = 100)” value was 109%.

Target: T1, human C5
Experiment: Biacore, 37 degrees C; antibody captured, human C5 injected (concentration not given); association pH 7.4, dissociation pH 7.4 (circles) or pH 5.8 (triangles)

B12: binds.
